Key:
human TGF-β3 [1] = molecular target: T1, human TGF-β3 (human, UniProt P10600 301-412); experiment: cell-based or functional assay
T1 sequence: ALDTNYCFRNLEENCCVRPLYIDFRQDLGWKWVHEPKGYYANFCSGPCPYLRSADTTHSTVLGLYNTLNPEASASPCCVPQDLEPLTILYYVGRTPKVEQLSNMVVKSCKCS

human recombinant TGF-β2 [2] = molecular target: T2, human recombinant TGF-β2 (human, UniProt P09858 303-414 (pig entry)); experiment: cell-based or functional assay
T2 sequence: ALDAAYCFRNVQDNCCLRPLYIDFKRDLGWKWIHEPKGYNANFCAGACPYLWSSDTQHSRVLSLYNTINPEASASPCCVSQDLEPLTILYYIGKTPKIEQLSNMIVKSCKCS

human TGF-β1 [3] = molecular target: T3, human TGF-β1 (human, UniProt P01137 279-390); experiment: cell-based or functional assay
T3 sequence (P01137 279-390 limits assumed): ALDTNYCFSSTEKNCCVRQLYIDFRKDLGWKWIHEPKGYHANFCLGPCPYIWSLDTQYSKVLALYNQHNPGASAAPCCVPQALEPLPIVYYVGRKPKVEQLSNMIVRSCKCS

human recombinant TGF-β2 [4] = molecular target: T2, human recombinant TGF-β2; experiment: ratio of the KD values of Table 4
human TGF-β3 [5] = molecular target: T1, human TGF-β3; experiment: BiaCORE (surface plasmon resonance)
human recombinant TGF-β2 [6] = molecular target: T2, human recombinant TGF-β2; experiment: BiaCORE (surface plasmon resonance)
human TGF-β1 [7] = molecular target: T3, human TGF-β1; experiment: cell-based or functional assay; remark: listed apart in the source
mouse recombinant TGF-β2 [8] = molecular target: T4, mouse recombinant TGF-β2 (mouse, UniProt P27090 303-414); experiment: cell-based or functional assay
T4 sequence (looked up): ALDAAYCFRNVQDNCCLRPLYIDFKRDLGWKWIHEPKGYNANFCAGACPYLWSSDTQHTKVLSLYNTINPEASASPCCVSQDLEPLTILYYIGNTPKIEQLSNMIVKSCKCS

human recombinant TGF-β2 [9] = molecular target: T2, human recombinant TGF-β2; experiment: conservative reading of the KD value of Table 4
mouse recombinant TGF-β2 [10] = molecular target: T4, mouse recombinant TGF-β2; experiment: BiaCORE (surface plasmon resonance)
human TGF-β1 [11] = molecular target: T3, human TGF-β1; experiment: not named in the sentence (it points to Table 4)
human recombinant TGF-β2 [12] = molecular target: T2, human recombinant TGF-β2; experiment: ratio with the conservative KD of 100 fM
[13] = molecular target: T5, human TGFβ-2 (residues 303-414, SEQ ID NO: 122) (human, UniProt P61812 303-414); experiment: X-ray crystal structure of the complex
T5 construct: Construct of the crystal structure with the MOR14797 Fab; also called TGFβ-2 dimer (chains A and B)
T5 sequence: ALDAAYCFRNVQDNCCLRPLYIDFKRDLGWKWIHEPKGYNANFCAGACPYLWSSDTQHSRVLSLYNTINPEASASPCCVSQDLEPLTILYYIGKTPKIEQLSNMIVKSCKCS
Experimental: As detailed below, the individual components of the complex were produced using separate expression systems and were combined to generate the purified complex. X-ray crystallography was then employed to generate diffraction data for TGFβ-2 bound to the MOR14797 Fab, elucidating the antigen-binding site.
The TGFβ-2-MOR14797 complex was concentrated to 20 mg/ml, followed by centrifugation at 20,000×g for 10 min prior to dispensing crystallization screens. Crystals were grown at 20° C. using a sitting drop vapor diffusion setup. 0.1 μl of the TGFβ-2-MOR14797 complex was mixed with 0.1 μl of a reservoir solution containing 0.1 M HEPES (pH 7.5) and 70% (v/v) MPD, and the drop was equilibrated against 45 μl of the reservoir solution. Crystals were flash-cooled directly in liquid nitrogen and were sent to the Advanced Photon Source (Argonne National Laboratory, USA) for collection of diffraction data at beamline 17-ID. Datasets were processed using autoPROC (version 1.1.6, Global Phasing Ltd.) to a resolution of 2.4 Å in space group P2₁2₁2₁ with cell dimensions a=77.2 Å, b=122.1 Å, c=130.1 Å, α=90°, β=90°, and γ=90°. […] The Rwork and Rfree values are 17.5% and 23.0%, respectively. The RMSD values for the bond lengths and angles were 0.008 Å and 1.054°.

human recombinant TGF-β2 [14] = molecular target: T2, human recombinant TGF-β2; experiment: conservative reading of the KD value of Table 4; conservative interpretation of the Table 4 KD, not a new measurement

Row | Binder | RGA (CAGA-12 luc/Smad-2/3 RGA; IC 50 [pM]) (human TGF-β3 [1]) [pM] | RGA (CAGA-12 luc/Smad-2/3 RGA; IC 50 [pM]) (human recombinant TGF-β2 [2]) [pM] | RGA (CAGA-12 luc/Smad-2/3 RGA; IC 50 [pM]) (human TGF-β1 [3]) [pM] | fold lower KD for TGFβ2 than for TGFbeta 3 (human recombinant TGF-β2 [4]) [fold] | Kd (human TGF-β3 [5]) [nM] | Kd (human recombinant TGF-β2 [6]) [pM] | IC50 (read off the curve) (CAGA-12 luciferase reporter gene assay, HEK293T/17) (human TGF-β1 [7]) [nM] | CK (IC 50 [pM]), Skeletal Muscle Cell Differentiation Assay (Creatine Kinase) (human recombinant TGF-β2 [2]) [pM] | CK (IC 50 [pM]), Skeletal Muscle Cell Differentiation Assay (Creatine Kinase) (mouse recombinant TGF-β2 [8]) [pM] | RGA (CAGA-12 luc/Smad-2/3 RGA; IC 50 [pM]) (mouse recombinant TGF-β2 [8]) [pM] | Kd (human recombinant TGF-β2 [9]) [nM] | fold lower KD for TGFbeta-2 than for TGFbeta-3 (human recombinant TGF-β2 [4]) [fold] | Kd (mouse recombinant TGF-β2 [10]) [pM] | binding result (human TGF-β1 [11]) | fold lower KD for TGFβ2 than for TGFbeta-3 (human recombinant TGF-β2 [12]) [fold] | binding result [13] | Kd (human recombinant TGF-β2 [14]) [nM] | fold lower KD for TGFβ2 than for TGFbeta 3 (human recombinant TGF-β2 [12]) [fold]
1 | 1D11 (antibody, V domains shown) VH: QVQLQQSGPELVRPGASVKLSCKASGYIFITYWMNWVKQRPGQGLEWIGQIFPASGSTNYNEMFEGKATLTVDTSSSTAYMQLSSLTSEDSAVYYCARGDGNYALDAMDYWGQGTSVTVSS VL: DIVLTQSPASLAVSLGQRATISCRASESVDSYGNSFMHWYQQKSGQPPKLLIYLASNLESGVPARFSGSGSRTDFTLTIDPVEADDAATYYCQQNNEDPLTFGAGTKLEIK | 32 | 4370 | 108 | 17 | 0.02 | 117 | ~0.5 |  |  |  |  |  |  |  |  |  |  | 
2 | MOR14797 (antibody, human IgG1, kappa, V domains shown, (no LALA)) VH: QVTLRESGPALVKPTQTLTLTCTFSGFSLSTSGMGVGWIRQPPGKALEWLAHIYWNDDKSYSTSLKTRLTISKDTSKNQVVLTMTNMDPVDTATYYCARDFYYSGYFDSWGQGTLVTVSS VL: DIQMTQSPSSLSASVGDRVTITCRASQDISNYLNWYQQKPGKAPKLLIFGASSLQSGVPSRFSGSGSGTDFTLTISSLQPEDFATYYCQQTNTMNTFGQGTKVEIKR | > 100000 | 8.4 | > 100000 |  | 27.4 | 0.00446 |  | 105 | 1500 | 329 | ≤ 0.0001 | 6e+06 | 0.633 | no binding | 270000 |  |  | 
3 | MOR14809 (antibody, human IgG1, lambda, V domains shown) VH: QVQLVQSGAEVKKPGESLKISCKGSGYSFTRYWIAWVRQMPGKGLEWMGIIDPGTSDTRYSPSFQGQVTISADKSISTAYLQWSSLKASDTAMYYCARIDKSLILHSAFDYWGQGTLVTVSS VL: SYELTQPLSVSVALGQTARITCSGDNLGGYYAYWYQQKPGQAPVLVIYETNNRPSGIPERFSGSNSGNTATLTISRAQAGDEADYYCASTTQDYLVFVFGGGTKLTVLG | > 100000 | 94 | > 100000 |  | > 1000 | 0.0524 |  | 220 | 800 | 598 | ≤ 0.0001 |  | 0.00236 | no binding |  |  |  | 
4 | MOR14799 (antibody, human IgG1, lambda, V domains shown) VH: QVQLVQSGAEVKKPGESLKISCKGSGYSFTRYYVAWVRQMPGKGLEWMGWIDPGQSNTRYSPSFQGQVTISADKSISTAYLQWSSLKASDTAMYYCARMLAWGWFDYWGQGTLVTVSS VL: SYELTQPLSVSVALGQTARITCSGDNLGGYYAHWYQQKPGQAPVLVIYDKSDRPSGIPERFSGSNSGNTATLTISRAQAGDEADYYCASYDSSLMMVFGGGTKLTVLG | > 100000 | 78 | > 100000 | > 18000 | 0.0199 | 0.00108 |  | 1050 | 909 | 138 |  |  | 0.00277 | no binding |  |  | ≤ 0.0001 | 200

Continued, values first:

Row | RGA (CAGA-12 luc/Smad-2/3 RGA; IC 50 [pM]) (human TGF-β3 [1]) [pM] | RGA (CAGA-12 luc/Smad-2/3 RGA; IC 50 [pM]) (human recombinant TGF-β2 [2]) [pM] | RGA (CAGA-12 luc/Smad-2/3 RGA; IC 50 [pM]) (human TGF-β1 [3]) [pM] | fold lower KD for TGFβ2 than for TGFbeta 3 (human recombinant TGF-β2 [4]) [fold] | Kd (human TGF-β3 [5]) [nM] | Kd (human recombinant TGF-β2 [6]) [pM] | IC50 (read off the curve) (CAGA-12 luciferase reporter gene assay, HEK293T/17) (human TGF-β1 [7]) [nM] | CK (IC 50 [pM]), Skeletal Muscle Cell Differentiation Assay (Creatine Kinase) (human recombinant TGF-β2 [2]) [pM] | CK (IC 50 [pM]), Skeletal Muscle Cell Differentiation Assay (Creatine Kinase) (mouse recombinant TGF-β2 [8]) [pM] | RGA (CAGA-12 luc/Smad-2/3 RGA; IC 50 [pM]) (mouse recombinant TGF-β2 [8]) [pM] | Kd (human recombinant TGF-β2 [9]) [nM] | fold lower KD for TGFbeta-2 than for TGFbeta-3 (human recombinant TGF-β2 [4]) [fold] | Kd (mouse recombinant TGF-β2 [10]) [pM] | binding result (human TGF-β1 [11]) | fold lower KD for TGFβ2 than for TGFbeta-3 (human recombinant TGF-β2 [12]) [fold] | binding result [13] | Kd (human recombinant TGF-β2 [14]) [nM] | fold lower KD for TGFβ2 than for TGFbeta 3 (human recombinant TGF-β2 [12]) [fold] | Binder
5 |  |  |  |  |  |  |  |  |  |  |  |  |  |  |  | binds |  |  | MOR14797 Fab (Fab, V domains shown, also called Fab fragment of MOR14797) VH: QVTLRESGPALVKPTQTLTLTCTFSGFSLSTSGMGVGWIRQPPGKALEWLAHIYWNDDKSYSTSLKTRLTISKDTSKNQVVLTMTNMDPVDTATYYCARDFYYSGYFDSWGQGTLVTVSS VL: DIQMTQSPSSLSASVGDRVTITCRASQDISNYLNWYQQKPGKAPKLLIFGASSLQSGVPSRFSGSGSGTDFTLTISSLQPEDFATYYCQQTNTMNTFGQGTKVEIKR
6 | > 100000 | 2.8 | > 100000 |  | > 1000 |  |  | 366 | 3000 | > 100000 |  |  | 1.89 | no binding |  |  |  |  | MOR14787 (antibody, human IgG1, kappa, V domains shown) VH: QVQLVQSGAEVKKPGSSVKVSCKASGGTFSSYAISWVRQAPGQGLEWMGVIVPKWGHPQYAQKFQGRVTITADESTSTAYMELSSLRSEDTAVYYCAREGDFVVLVLTEHYMGGFDVWGQGTLVTVSS VL: DIQMTQSPSSLSASVGDRVTITCRASQSIDEYLNWYQQKPGKAPKLLIYAGSNLQSGVPSRFSGSGSGTDFTLTISSLQPEDFATYYCLQGYSYPRTFGQGTKVEIKR
7 | > 100000 | 106 | > 100000 |  | 0.0705 | 0.97 |  | 315 | 629 | 248 |  | 73 |  | no binding |  |  |  |  | MOR14805 (antibody, human IgG1, lambda, V domains shown) VH: QVQLVQSGAEVKKPGESLKISCKGSGYSFTRYYVAWVRQMPGKGLEWMGWIDPGTSNTRYSPSFQGQVTISADKSISTAYLQWSSLKASDTAMYYCARMLAWGWFDYWGQGTLVTVSS VL: SYELTQPLSVSVALGQTARITCSGDNLGGYYAHWYQQKPGQAPVLVIYDKSDRPSGIPERFSGSNSGNTATLTISRAQAGDEADYYCASYDSSLMMVFGGGTKLTVLG
8 | > 100000 | 29 | > 100000 |  | > 1000 |  |  | 491 | 1200 | 123 | ≤ 0.0001 |  | 0.00109 | no binding |  |  |  |  | MOR14800 (antibody, human IgG1, lambda, V domains shown) VH: QVQLVQSGAEVKKPGESLKISCKGSGYSFTRYYVAWVRQMPGKGLEWMGWIDPGQSNTRYSPSFQGQVTISADKSISTAYLQWSSLKASDTAMYYCARMLAWGWFDYWGQGTLVTVSS VL: SYELTQPLSVSVALGQTARITCSGDNLGGYYAHWYQQKPGQAPVLVIYDTSDRPSGIPERFSGSNSGNTATLTISRAQAGDEADYYCASYDSSLMMVFGGGTKLTVLG
